{
  "source": "patent US20170275666A1",
  "about": "“Methods for Preparing Rebaudioside I and Uses” (The Coca-Cola Company, priority 2014, published 2017)",
  "data": [
    {"test": "Directed evolution of UGT76G1, conversion of Rebaudioside D to Rebaudioside M (round 1)", "format": "biochemical", "conditions": "0.5 mM Rebaudioside D, 2.5 mM UDP-Glucose, 100 μL fresh lysate, 30° C., pH 7.2", "method_in_brief": "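Conversion to Reb M and initial rate were measured by HPLC with CAD at 2, 4, 7 and 24 h, with reactions run at 30° C in 50 mM phosphate pH 7.2 containing 0.5 mM Reb D, 2.5 mM UDP-glucose and 3 mM MgCl2. Enzyme source: fresh lysates of E. coli BL21(DE3) expressing 3-5-mutation UGT76G1 variants.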", "units": {"Conversion Reb D to Reb M after 24 h (%)": "%", "initial rate (Reb M area/min)": "Reb M area/min"}, "values": [
      {"molecule": "UGT76G1var77: UGT76G1 variant, mutations A239V_F265I_I295T_D301N_K393G (protein, UniProt Q6VAB4 1-458, looked up, variant A239V F265I I295T D301N K393G) UDP-glycosyltransferase 76G1: MENKTETTVRRRRRIILFPVPFQGHINPILQLANVLYSKGFSITIFHTNFNKPKTSNYPHFTFRFILDNDPQDERISNLPTHGPLAGMRIPIINEHGADELRRELELLMLASEEDEEVSCLITDALWYFAQSVADSLNLRRLVLMTSSLFNFHAHVSLPQFDELGYLDPDDKTRLEEQASGFPMLKVKDIKSAYSNWQILKEILGKMIKQTKASSGVIWNSFKELEESELETVIREIPVPSFLIPLPKHLTASSSSLLDHDRTVIQWLDQQPPSSVLYVSFGSTSEVDEKDFLETARGLVNSKQSFLWVVRPGFVKGSTWVEPLPDGFLGERGRIVKWVPQQEVLAHGAIGAFWTHSGWNSTLESVCEGVPMIFSDFGLDQPLNARYMSDVLGVGVYLENGWERGEIANAIRRVMVDEEGEYIRQNARVLKQKADVSLMKGGSSYESLESLVSYISSL", "Conversion Reb D to Reb M after 24 h (%)": 1.9, "initial rate (Reb M area/min)": "4.4E+05"},
      {"molecule": "UGT76G1var81: UGT76G1 variant, mutations A33G_T263S_S274G_V279I_Y397E (protein, UniProt Q6VAB4 1-458, looked up, variant A33G T263S S274G V279I Y397E) UDP-glycosyltransferase 76G1: MENKTETTVRRRRRIILFPVPFQGHINPILQLGNVLYSKGFSITIFHTNFNKPKTSNYPHFTFRFILDNDPQDERISNLPTHGPLAGMRIPIINEHGADELRRELELLMLASEEDEEVSCLITDALWYFAQSVADSLNLRRLVLMTSSLFNFHAHVSLPQFDELGYLDPDDKTRLEEQASGFPMLKVKDIKSAYSNWQILKEILGKMIKQTKASSGVIWNSFKELEESELETVIREIPAPSFLIPLPKHLTASSSSLLDHDRSVFQWLDQQPPGSVLYISFGSTSEVDEKDFLEIARGLVDSKQSFLWVVRPGFVKGSTWVEPLPDGFLGERGRIVKWVPQQEVLAHGAIGAFWTHSGWNSTLESVCEGVPMIFSDFGLDQPLNARYMSDVLKVGVELENGWERGEIANAIRRVMVDEEGEYIRQNARVLKQKADVSLMKGGSSYESLESLVSYISSL", "Conversion Reb D to Reb M after 24 h (%)": 15.0, "initial rate (Reb M area/min)": "6.5E+06"},
      {"molecule": "UGT76G1var5: UGT76G1 variant, mutations F22Y_I373L_P382M (protein, UniProt Q6VAB4 1-458, looked up, variant F22Y I373L P382M) UDP-glycosyltransferase 76G1: MENKTETTVRRRRRIILFPVPYQGHINPILQLANVLYSKGFSITIFHTNFNKPKTSNYPHFTFRFILDNDPQDERISNLPTHGPLAGMRIPIINEHGADELRRELELLMLASEEDEEVSCLITDALWYFAQSVADSLNLRRLVLMTSSLFNFHAHVSLPQFDELGYLDPDDKTRLEEQASGFPMLKVKDIKSAYSNWQILKEILGKMIKQTKASSGVIWNSFKELEESELETVIREIPAPSFLIPLPKHLTASSSSLLDHDRTVFQWLDQQPPSSVLYVSFGSTSEVDEKDFLEIARGLVDSKQSFLWVVRPGFVKGSTWVEPLPDGFLGERGRIVKWVPQQEVLAHGAIGAFWTHSGWNSTLESVCEGVPMLFSDFGLDQMLNARYMSDVLKVGVYLENGWERGEIANAIRRVMVDEEGEYIRQNARVLKQKADVSLMKGGSSYESLESLVSYISSL", "Conversion Reb D to Reb M after 24 h (%)": 3.5, "initial rate (Reb M area/min)": "2.3E+06"},
      {"molecule": "UGT76G1var84: UGT76G1 variant, mutations F22L_Q266S_F314S_A352G_S357C (protein, UniProt Q6VAB4 1-458, looked up, variant F22L Q266S F314S A352G S357C) UDP-glycosyltransferase 76G1: MENKTETTVRRRRRIILFPVPLQGHINPILQLANVLYSKGFSITIFHTNFNKPKTSNYPHFTFRFILDNDPQDERISNLPTHGPLAGMRIPIINEHGADELRRELELLMLASEEDEEVSCLITDALWYFAQSVADSLNLRRLVLMTSSLFNFHAHVSLPQFDELGYLDPDDKTRLEEQASGFPMLKVKDIKSAYSNWQILKEILGKMIKQTKASSGVIWNSFKELEESELETVIREIPAPSFLIPLPKHLTASSSSLLDHDRTVFSWLDQQPPSSVLYVSFGSTSEVDEKDFLEIARGLVDSKQSFLWVVRPGSVKGSTWVEPLPDGFLGERGRIVKWVPQQEVLAHGAIGGFWTHCGWNSTLESVCEGVPMIFSDFGLDQPLNARYMSDVLKVGVYLENGWERGEIANAIRRVMVDEEGEYIRQNARVLKQKADVSLMKGGSSYESLESLVSYISSL", "Conversion Reb D to Reb M after 24 h (%)": 1.2, "initial rate (Reb M area/min)": "2.3E+05"},
      {"molecule": "UGT76G1var79: UGT76G1 variant, mutations E224D_T284I_V366I_I373L_K393G (protein, UniProt Q6VAB4 1-458, looked up, variant E224D T284I V366I I373L K393G) UDP-glycosyltransferase 76G1: MENKTETTVRRRRRIILFPVPFQGHINPILQLANVLYSKGFSITIFHTNFNKPKTSNYPHFTFRFILDNDPQDERISNLPTHGPLAGMRIPIINEHGADELRRELELLMLASEEDEEVSCLITDALWYFAQSVADSLNLRRLVLMTSSLFNFHAHVSLPQFDELGYLDPDDKTRLEEQASGFPMLKVKDIKSAYSNWQILKEILGKMIKQTKASSGVIWNSFKDLEESELETVIREIPAPSFLIPLPKHLTASSSSLLDHDRTVFQWLDQQPPSSVLYVSFGSISEVDEKDFLEIARGLVDSKQSFLWVVRPGFVKGSTWVEPLPDGFLGERGRIVKWVPQQEVLAHGAIGAFWTHSGWNSTLESICEGVPMLFSDFGLDQPLNARYMSDVLGVGVYLENGWERGEIANAIRRVMVDEEGEYIRQNARVLKQKADVSLMKGGSSYESLESLVSYISSL", "Conversion Reb D to Reb M after 24 h (%)": 8.5, "initial rate (Reb M area/min)": "3.8E+06"},
      {"molecule": "UGT76G1var83: UGT76G1 variant, mutations I43V_Q342E_S357N_S375R_L379G (protein, UniProt Q6VAB4 1-458, looked up, variant I43V Q342E S357N S375R L379G) UDP-glycosyltransferase 76G1: MENKTETTVRRRRRIILFPVPFQGHINPILQLANVLYSKGFSVTIFHTNFNKPKTSNYPHFTFRFILDNDPQDERISNLPTHGPLAGMRIPIINEHGADELRRELELLMLASEEDEEVSCLITDALWYFAQSVADSLNLRRLVLMTSSLFNFHAHVSLPQFDELGYLDPDDKTRLEEQASGFPMLKVKDIKSAYSNWQILKEILGKMIKQTKASSGVIWNSFKELEESELETVIREIPAPSFLIPLPKHLTASSSSLLDHDRTVFQWLDQQPPSSVLYVSFGSTSEVDEKDFLEIARGLVDSKQSFLWVVRPGFVKGSTWVEPLPDGFLGERGRIVKWVPQEEVLAHGAIGAFWTHNGWNSTLESVCEGVPMIFRDFGGDQPLNARYMSDVLKVGVYLENGWERGEIANAIRRVMVDEEGEYIRQNARVLKQKADVSLMKGGSSYESLESLVSYISSL", "Conversion Reb D to Reb M after 24 h (%)": 0.5, "initial rate (Reb M area/min)": "4.3E+04"},
      {"molecule": "UGT76G1var78: UGT76G1 variant, mutations V279I_V300A_V310I_I335V_S357C (protein, UniProt Q6VAB4 1-458, looked up, variant V279I V300A V310I I335V S357C) UDP-glycosyltransferase 76G1: MENKTETTVRRRRRIILFPVPFQGHINPILQLANVLYSKGFSITIFHTNFNKPKTSNYPHFTFRFILDNDPQDERISNLPTHGPLAGMRIPIINEHGADELRRELELLMLASEEDEEVSCLITDALWYFAQSVADSLNLRRLVLMTSSLFNFHAHVSLPQFDELGYLDPDDKTRLEEQASGFPMLKVKDIKSAYSNWQILKEILGKMIKQTKASSGVIWNSFKELEESELETVIREIPAPSFLIPLPKHLTASSSSLLDHDRTVFQWLDQQPPSSVLYISFGSTSEVDEKDFLEIARGLADSKQSFLWVIRPGFVKGSTWVEPLPDGFLGERGRVVKWVPQQEVLAHGAIGAFWTHCGWNSTLESVCEGVPMIFSDFGLDQPLNARYMSDVLKVGVYLENGWERGEIANAIRRVMVDEEGEYIRQNARVLKQKADVSLMKGGSSYESLESLVSYISSL", "Conversion Reb D to Reb M after 24 h (%)": 3.2, "initial rate (Reb M area/min)": "8.2E+05"},
      {"molecule": "UGT76G1var80: UGT76G1 variant, mutations L243P_L379A_S389E_Q425E_Q432E (protein, UniProt Q6VAB4 1-458, looked up, variant L243P L379A S389E Q425E Q432E) UDP-glycosyltransferase 76G1: MENKTETTVRRRRRIILFPVPFQGHINPILQLANVLYSKGFSITIFHTNFNKPKTSNYPHFTFRFILDNDPQDERISNLPTHGPLAGMRIPIINEHGADELRRELELLMLASEEDEEVSCLITDALWYFAQSVADSLNLRRLVLMTSSLFNFHAHVSLPQFDELGYLDPDDKTRLEEQASGFPMLKVKDIKSAYSNWQILKEILGKMIKQTKASSGVIWNSFKELEESELETVIREIPAPSFPIPLPKHLTASSSSLLDHDRTVFQWLDQQPPSSVLYVSFGSTSEVDEKDFLEIARGLVDSKQSFLWVVRPGFVKGSTWVEPLPDGFLGERGRIVKWVPQQEVLAHGAIGAFWTHSGWNSTLESVCEGVPMIFSDFGADQPLNARYMEDVLKVGVYLENGWERGEIANAIRRVMVDEEGEYIRENARVLKEKADVSLMKGGSSYESLESLVSYISSL", "Conversion Reb D to Reb M after 24 h (%)": 1.0, "initial rate (Reb M area/min)": "2.1E+05"},
      {"molecule": "UGT76G1var82: UGT76G1 variant, mutations E224D_L243A_F265L_R334H_A352G (protein, UniProt Q6VAB4 1-458, looked up, variant E224D L243A F265L R334H A352G) UDP-glycosyltransferase 76G1: MENKTETTVRRRRRIILFPVPFQGHINPILQLANVLYSKGFSITIFHTNFNKPKTSNYPHFTFRFILDNDPQDERISNLPTHGPLAGMRIPIINEHGADELRRELELLMLASEEDEEVSCLITDALWYFAQSVADSLNLRRLVLMTSSLFNFHAHVSLPQFDELGYLDPDDKTRLEEQASGFPMLKVKDIKSAYSNWQILKEILGKMIKQTKASSGVIWNSFKDLEESELETVIREIPAPSFAIPLPKHLTASSSSLLDHDRTVLQWLDQQPPSSVLYVSFGSTSEVDEKDFLEIARGLVDSKQSFLWVVRPGFVKGSTWVEPLPDGFLGERGHIVKWVPQQEVLAHGAIGGFWTHSGWNSTLESVCEGVPMIFSDFGLDQPLNARYMSDVLKVGVYLENGWERGEIANAIRRVMVDEEGEYIRQNARVLKQKADVSLMKGGSSYESLESLVSYISSL", "Conversion Reb D to Reb M after 24 h (%)": 1.1, "initial rate (Reb M area/min)": "2.5E+05"},
      {"molecule": "UGT76G1var85: UGT76G1 variant, mutations T284L_G348P_F377C_P382M_N409R (protein, UniProt Q6VAB4 1-458, looked up, variant T284L G348P F377C P382M N409R) UDP-glycosyltransferase 76G1: MENKTETTVRRRRRIILFPVPFQGHINPILQLANVLYSKGFSITIFHTNFNKPKTSNYPHFTFRFILDNDPQDERISNLPTHGPLAGMRIPIINEHGADELRRELELLMLASEEDEEVSCLITDALWYFAQSVADSLNLRRLVLMTSSLFNFHAHVSLPQFDELGYLDPDDKTRLEEQASGFPMLKVKDIKSAYSNWQILKEILGKMIKQTKASSGVIWNSFKELEESELETVIREIPAPSFLIPLPKHLTASSSSLLDHDRTVFQWLDQQPPSSVLYVSFGSLSEVDEKDFLEIARGLVDSKQSFLWVVRPGFVKGSTWVEPLPDGFLGERGRIVKWVPQQEVLAHPAIGAFWTHSGWNSTLESVCEGVPMIFSDCGLDQMLNARYMSDVLKVGVYLENGWERGEIARAIRRVMVDEEGEYIRQNARVLKQKADVSLMKGGSSYESLESLVSYISSL", "Conversion Reb D to Reb M after 24 h (%)": 1.8, "initial rate (Reb M area/min)": "4.0E+05"}
    ]}
  ]
}
